Experimental data as given in patent US20230140293A1.

Key:
[1] = target: HIV-1 Env 426c.SM (N276D), Env-pseudotyped virus produced in 293T cells (HIV-1 clade C strain 426c); experiment: cell-based or functional assay
[2] = target: CH0505TF Env, Env-pseudotyped virus produced in 293T cells (HIV-1); experiment: cell-based or functional assay
[3] = target: HIV-1 clade C strain 426c Env on Env-pseudotyped virus produced in 293s/GnTI-/- cells (Man5-enrichment) (HIV-1); experiment: cell-based or functional assay
[4] = target: CH0505TF.gly4 Env, pseudotyped virus produced in 293S GnTI- cells (HIV-1); experiment: cell-based or functional assay
[5] = target: CH0505TF.gly3.461 Env, pseudotyped virus produced in 293S GnTI- cells (HIV-1); experiment: cell-based or functional assay
[6] = target: HIV-1 Env 426c, Env-pseudotyped virus produced in 293S GnTI- cells (Man5-enriched) (HIV-1 clade C strain 426c); experiment: cell-based or functional assay
[7] = target: CH0505.w4.3 Env, Env-pseudotyped virus produced in 293T cells (HIV-1); experiment: cell-based or functional assay
[8] = target: CH0505TF.G458Y Env, Env-pseudotyped virus produced in 293T cells (HIV-1); experiment: cell-based or functional assay
[9] = target: CH0505TF.gly3.197 Env, Env-pseudotyped virus produced in 293T cells (HIV-1); experiment: cell-based or functional assay
[10] = target: HIV-1 426c.DM (N460D/N463D) Env on Env-pseudotyped virus produced in 293T cells (HIV-1); experiment: cell-based or functional assay
[11] = target: CH0505TF.G458Y Env, pseudotyped virus produced in 293S GnTI- cells (HIV-1); experiment: cell-based or functional assay
[12] = target: HIV-1 426c.TM (N276D/N460D/N463D) Env on Env-pseudotyped virus produced in 293T cells (HIV-1); experiment: cell-based or functional assay
[13] = target: CH0505TF.gly3.276 Env, Env-pseudotyped virus produced in 293T cells (HIV-1); experiment: cell-based or functional assay
[14] = target: CH0505TF.gly3.276 Env, pseudotyped virus produced in 293S GnTI- cells (HIV-1); experiment: cell-based or functional assay
[15] = target: HIV-1 clade C strain 426c Env on Env-pseudotyped virus produced in 293T cells (HIV-1); experiment: cell-based or functional assay
[16] = target: HIV-1 Env 426c.TM4 (S278R.G471S.N460D.N463D), Env-pseudotyped virus produced in 293T cells (HIV-1 clade C strain 426c); experiment: cell-based or functional assay
[17] = target: HIV-1 Env 426c.TM4 (S278R.G471S.N460D.N463D), Env-pseudotyped virus produced in 293S GnTI- cells (Man5-enriched) (HIV-1 clade C strain 426c); experiment: cell-based or functional assay
[18] = target: HIV-1 Env 426c, Env-pseudotyped virus produced in 293T cells (HIV-1 clade C strain 426c); experiment: cell-based or functional assay
[19] = target: HIV-1 Env 426c.TM (N276D.N460D.N463D), Env-pseudotyped virus produced in 293T cells (HIV-1 clade C strain 426c); experiment: cell-based or functional assay
[20] = target: HIV-1 426c.TM (N276D/N460D/N463D) Env on Env-pseudotyped virus produced in 293s/GnTI-/- cells (Man5-enrichment) (HIV-1); experiment: cell-based or functional assay
[21] = target: HIV-1 Env 426c.TM (N276D.N460D.N463D), Env-pseudotyped virus produced in 293S GnTI- cells (Man5-enriched) (HIV-1 clade C strain 426c); experiment: cell-based or functional assay
[22] = target: HIV-1 Env 426c.SM (N276D), Env-pseudotyped virus produced in 293S GnTI- cells (Man5-enriched) (HIV-1 clade C strain 426c); experiment: cell-based or functional assay
[23] = target: CH0505TF.gly4 Env, Env-pseudotyped virus produced in 293T cells (HIV-1); experiment: cell-based or functional assay
[24] = target: HIV-1 Env 426c.DM (N460D.N463D), Env-pseudotyped virus produced in 293S GnTI- cells (Man5-enriched) (HIV-1 clade C strain 426c); experiment: cell-based or functional assay
[25] = target: HIV-1 426c.SM (N276D) Env on Env-pseudotyped virus produced in 293T cells (HIV-1); experiment: cell-based or functional assay
[26] = target: HIV-1 Env 426c.DM (N460D.N463D), Env-pseudotyped virus produced in 293T cells (HIV-1 clade C strain 426c); experiment: cell-based or functional assay
[27] = target: HIV-1 426c.SM (N276D) Env on Env-pseudotyped virus produced in 293s/GnTI-/- cells (Man5-enrichment) (HIV-1); experiment: cell-based or functional assay
[28] = target: HIV-1 426c.DM (N460D/N463D) Env on Env-pseudotyped virus produced in 293s/GnTI-/- cells (Man5-enrichment) (HIV-1); experiment: cell-based or functional assay
[29] = target: CH0505TF Env, pseudotyped virus produced in 293S GnTI- cells (HIV-1); experiment: cell-based or functional assay
[30] = target: CH0505TF.gly3.197 Env, pseudotyped virus produced in 293S GnTI- cells (HIV-1); experiment: cell-based or functional assay
[31] = target: CH0505TF.gly3.461 Env, Env-pseudotyped virus produced in 293T cells (HIV-1); experiment: cell-based or functional assay
[32] = target: HIV-1 CH0505TF.N280D Env on Env-pseudotyped virus produced in 293T cells (HIV-1); experiment: cell-based or functional assay
[33] = target: HIV-1 CH0505TF (CH505 transmitted/founder) Env on Env-pseudotyped virus produced in 293T cells (HIV-1); experiment: cell-based or functional assay
[34] = target: HIV-1 CH0505TF.S365P Env on Env-pseudotyped virus produced in 293T cells (HIV-1); experiment: cell-based or functional assay
[35] = target: HIV-1 CH0505TF.G458Y Env on Env-pseudotyped virus produced in 293T cells (HIV-1); experiment: cell-based or functional assay
[36] = target: CH505 w053.31 gp120 (HIV-1); experiment: ELISA, gp120 on plate
[37] = target: CH505 w078.15 gp120 (HIV-1); experiment: ELISA, gp120 on plate
[38] = target: CH505 w053.16 gp120 (HIV-1); experiment: ELISA, gp120 on plate
[39] = target: CH505 M5 gp120 (HIV-1); experiment: ELISA, gp120 on plate
[40] = target: CH505 M11 gp120 (HIV-1); experiment: ELISA, gp120 on plate
[41] = target: CH505 w020.14 gp120 (HIV-1); experiment: ELISA, gp120 on plate
[42] = target: CH505 transmitted/founder (TF) gp120 (HIV-1); experiment: ELISA, gp120 on plate
[43] = target: CH505 w078.33 gp120 (HIV-1); experiment: ELISA, gp120 on plate
[44] = target: CH505 w030.21 gp120 (HIV-1); experiment: ELISA, gp120 on plate
[45] = target: CH505 w030.28 gp120 (HIV-1); experiment: ELISA, gp120 on plate
[46] = target: CH505 w100.B6 gp120 (HIV-1); experiment: ELISA, gp120 on plate

3BNC117 (antibody)
IC50 (µg/ml) in TZM-bl [1]: 0.24 µg/mL | IC50 (µg/ml) in TZM-bl [2]: 0.03 µg/mL | ID50/IC50 in TZM-bl [3]: 0.02 µg/mL | IC50 (µg/ml) in TZM-bl [4]: 0.001 µg/mL | IC50 (µg/ml) in TZM-bl [5]: 0.002 µg/mL | IC50 (µg/ml) in TZM-bl [6]: 0.02 µg/mL | IC50 (µg/ml) in TZM-bl [7]: 0.02 µg/mL | IC50 (µg/ml) in TZM-bl [8]: > 25 µg/mL | IC50 (µg/ml) in TZM-bl [9]: 0.005 µg/mL | ID50/IC50 in TZM-bl [10]: 0.13 µg/mL | IC50 (µg/ml) in TZM-bl [11]: 18 µg/mL | ID50/IC50 in TZM-bl [12]: 0.01 µg/mL | IC50 (µg/ml) in TZM-bl [13]: 0.001 µg/mL | IC50 (µg/ml) in TZM-bl [14]: 0.001 µg/mL | ID50/IC50 in TZM-bl [15]: 0.2 µg/mL | IC50 (µg/ml) in TZM-bl [16]: 0.003 µg/mL | IC50 (µg/ml) in TZM-bl [17]: < 0.001 µg/mL | IC50 (µg/ml) in TZM-bl [18]: 0.2 µg/mL | IC50 (µg/ml) in TZM-bl [19]: 0.01 µg/mL | ID50/IC50 in TZM-bl [20]: 0.003 µg/mL | IC50 (µg/ml) in TZM-bl [21]: 0.003 µg/mL | IC50 (µg/ml) in TZM-bl [22]: 0.01 µg/mL | IC50 (µg/ml) in TZM-bl [23]: 0.001 µg/mL | IC50 (µg/ml) in TZM-bl [24]: 0.006 µg/mL | ID50/IC50 in TZM-bl [25]: 0.24 µg/mL | IC50 (µg/ml) in TZM-bl [26]: 0.13 µg/mL | ID50/IC50 in TZM-bl [27]: 0.01 µg/mL | ID50/IC50 in TZM-bl [28]: 0.006 µg/mL | IC50 (µg/ml) in TZM-bl [29]: 0.01 µg/mL | IC50 (µg/ml) in TZM-bl [30]: 0.004 µg/mL | IC50 (µg/ml) in TZM-bl [31]: 0.002 µg/mL | IC50 (µg/ml) in TZM-bl [32]: > 25 µg/mL | IC50 (µg/ml) in TZM-bl [33]: 0.03 µg/mL | IC50 (µg/ml) in TZM-bl [34]: 0.01 µg/mL | IC50 (µg/ml) in TZM-bl [35]: > 25 µg/mL

CH103 lineage intermediate ancestor IA1 (antibody)
log AUC [36]: 13.4 log AUC | log AUC [37]: 10.9 log AUC | log AUC [38]: 8.8 log AUC | log AUC [39]: 7 log AUC | log AUC [40]: 12.2 log AUC | log AUC [41]: 10.3 log AUC | log AUC [42]: 10.4 log AUC | log AUC [43]: 8.2 log AUC | log AUC [44]: 11.8 log AUC | log AUC [45]: 10.1 log AUC | log AUC [46]: 12.2 log AUC

CH103 lineage intermediate ancestor IA2 (antibody)
log AUC [36]: 13.3 log AUC | log AUC [37]: 11.5 log AUC | log AUC [38]: 9.3 log AUC | log AUC [39]: 7.8 log AUC | log AUC [40]: 12.7 log AUC | log AUC [41]: 11 log AUC | log AUC [42]: 10.8 log AUC | log AUC [43]: 9 log AUC | log AUC [44]: 11.5 log AUC | log AUC [45]: 11.1 log AUC | log AUC [46]: 12.1 log AUC

CH103 lineage intermediate ancestor IA3 (antibody)
log AUC [37]: 3 log AUC | log AUC [38]: 1.1 log AUC | log AUC [39]: 6.8 log AUC | log AUC [40]: 11.8 log AUC | log AUC [41]: 9.5 log AUC | log AUC [42]: 11 log AUC | log AUC [45]: 7.7 log AUC
